Measurements taken from patent publication US20210115124A1 (Genentech, published 2021).
Where a chain is given by its changes, count along the chain named.

T1: human VEGF (hVEGF) (human, UniProt P15692 181-395)
T1 construct: also called VEGF-A
T1 sequence: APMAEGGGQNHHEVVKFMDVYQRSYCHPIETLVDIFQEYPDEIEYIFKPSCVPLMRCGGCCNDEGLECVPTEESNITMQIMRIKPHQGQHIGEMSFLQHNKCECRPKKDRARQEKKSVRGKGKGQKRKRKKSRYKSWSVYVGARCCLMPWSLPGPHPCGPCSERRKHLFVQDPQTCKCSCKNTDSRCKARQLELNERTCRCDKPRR

B1: G6.31 HC-A60E (Fab, name in Kabat numbering, V domains shown)
VH: EVQLVESGGGLVQPGGSLRLSCAASGFTISDYWIHWVRQAPGKGLEWVAGITPAGGYTYYEDSVKGRFTISADTSKNTAYLQMNSLRAEDTAVYYCARFVFFLPYAMDYWGQGTLVTVSS
VL: DIQMTQSPSSLSASVGDRVTITCRASQDVSTAVAWYQQKPGKAPKLLIYSASFLYSGVPSRFSGSGSGTDFTLTISSLQPEDFATYYCQQGYGNPFTFGQGTKVEIK
notes: Fab
B2: G6.31 HC-S30E (Fab, name in Kabat numbering, V domains shown)
VH: B1 VH with S30E, E61A
VL: B1 VL
notes: Fab
B3: G6.31 HC-K43E (Fab, name in Kabat numbering, V domains shown)
VH: B1 VH with K43E, E61A
VL: B1 VL
notes: Fab
B4: G6.31 LC-P40E (Fab, V domains shown)
VH: B1 VH with E61A
VL: B1 VL with P40E
notes: Fab
B5: G6.31 HC-Y58E (Fab, name in Kabat numbering, V domains shown)
VH: B1 VH with Y59E, E61A
VL: B1 VL
notes: Fab
B6: G6.31 HC-T68K (Fab, name in Kabat numbering, V domains shown)
VH: B1 VH with E61A, T69K
VL: B1 VL
notes: Fab
B7: G6.31 HC-Q81E (Fab, name in Kabat numbering, V domains shown)
VH: B1 VH with E61A, Q82E
VL: B1 VL
notes: Fab
B8: G6.31 LC-S50R (Fab, V domains shown)
VH: B1 VH with E61A
VL: B1 VL with S50R
notes: Fab
B9: G6.31 HC-T68E (Fab, name in Kabat numbering, V domains shown)
VH: B1 VH with E61A, T69E
VL: B1 VL
notes: Fab
B10: G6.31 LC-Y55E (Fab, V domains shown)
VH: B1 VH with E61A
VL: B1 VL with Y55E
notes: Fab
B11: G6.31 HC-P41R (Fab, name in Kabat numbering, V domains shown)
VH: B1 VH with P41R, E61A
VL: B1 VL
notes: Fab
B12: G6.31 HC-T77K (Fab, name in Kabat numbering, V domains shown)
VH: B1 VH with E61A, T78K
VL: B1 VL
notes: Fab
B13: G6.31 LC-G93E (Fab, V domains shown)
VH: B1 VH with E61A
VL: B1 VL with G93E
notes: Fab
B14: G6.31 LC-T31R (Fab, V domains shown)
VH: B1 VH with E61A
VL: B1 VL with T31R
notes: Fab
B15: G6.31 HC-K75E (Fab, name in Kabat numbering, V domains shown)
VH: B1 VH with E61A, K76E
VL: B1 VL
notes: Fab
B16: G6.31 LC-A51E (Fab, V domains shown)
VH: B1 VH with E61A
VL: B1 VL with A51E
notes: Fab
B17: G6.31 HC-Y56K (Fab, name in Kabat numbering, V domains shown)
VH: B1 VH with Y57K, E61A
VL: B1 VL
notes: Fab
B18: G6.31 HC-T77E (Fab, name in Kabat numbering, V domains shown)
VH: B1 VH with E61A, T78E
VL: B1 VL
notes: Fab
B19: G6.31 LC-S77E (Fab, V domains shown)
VH: B1 VH with E61A
VL: B1 VL with S77E
notes: Fab
B20: G6.31 HC-S82bE (Fab, name in Kabat numbering, V domains shown)
VH: B1 VH with E61A, S85E
VL: B1 VL
notes: Fab
B21: G6.31 HC-T73E (Fab, name in Kabat numbering, V domains shown)
VH: B1 VH with E61A, T74E
VL: B1 VL
notes: Fab
B22: G6.31 LC-Q27E (Fab, V domains shown)
VH: B1 VH with E61A
VL: B1 VL with Q27E
notes: Fab
B23: G6.31 HC-G65E (Fab, name in Kabat numbering, V domains shown)
VH: B1 VH with E61A, G66E
VL: B1 VL
notes: Fab
B24: G6.31 LC-P59E (Fab, V domains shown)
VH: B1 VH with E61A
VL: B1 VL with P59E
notes: Fab
B25: G6.31 HC-P41E (Fab, name in Kabat numbering, V domains shown)
VH: B1 VH with P41E, E61A
VL: B1 VL
notes: Fab
B26: G6.31 LC-G57E (Fab, V domains shown)
VH: B1 VH with E61A
VL: B1 VL with G57E
notes: Fab
B27: G6.31 HC-K64E (Fab, name in Kabat numbering, V domains shown)
VH: B1 VH with E61A, K65E
VL: B1 VL
notes: Fab
B28: G6.31 HC-T28E (Fab, name in Kabat numbering, V domains shown)
VH: B1 VH with T28E, E61A
VL: B1 VL
notes: Fab
B29: G6.31 HC-T28K (Fab, name in Kabat numbering, V domains shown)
VH: B1 VH with T28K, E61A
VL: B1 VL
notes: Fab
B30: G6.31 LC-T72R (Fab, V domains shown)
VH: B1 VH with E61A
VL: B1 VL with T72R
notes: Fab
B31: G6.31 HC-A71E (Fab, name in Kabat numbering, V domains shown)
VH: B1 VH with E61A, A72E
VL: B1 VL
notes: Fab
B32: G6.31 HC-N76E (Fab, name in Kabat numbering, V domains shown)
VH: B1 VH with E61A, N77E
VL: B1 VL
notes: Fab
B33: G6.31 HC-S74E (Fab, name in Kabat numbering, V domains shown)
VH: B1 VH with E61A, S75E
VL: B1 VL
notes: Fab

target: T1, human VEGF (hVEGF); test: SPR single-cycle;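 further: fab variants injected over hVEGF immobilized on a CM5 chip (Biacore T200), threefold dilution series from 0.02 to 50 nM, kinetics fitted with a 1:1 Langmuir model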
Text: To determine the binding affinity of selected Fab variants, SPR measurement with a BIACORE® T200 instrument was used. Briefly, series S sensor chip CM5 was activated with 1-ethyl-3-(3-dimethylaminopropyl) carbodiimide (EDC) and N-hydroxysuccinimide (NHS) reagents according to the supplier's instructions, and human VEGF (hVEGF) was coupled to achieve 50-80 response units (RU), then following by blocking un-reacted groups with 1M ethanolamine.
Three-fold serial dilutions of Fab in HBS-P buffer (0.01 M HEPES pH 7.4, 0.15 M NaCl, 0.005% surfactant P20) from low (0.02 nM) to high (50 nM) were injected (flow rate: 30 μl/min). The binding responses on hVEGF were corrected by subtracting of RU from a blank flow cell. The sensorgram was recorded and subject to reference and buffer subtraction before evaluating by BIACORE® T200 Evaluation Software (version 2.0). Association rates (kₒₙ) and dissociation rates (koff) were calculated using a simple one-to-one Langmuir binding model. The equilibrium dissociation constant (Kd) was calculated as the ratio koff/kₒₙ.

Row | Fold change (relative to G6.31) [fold] | Kd [nM] | koff [s⁻¹] | kon [M⁻¹ s⁻¹] | Binder
1 | 1.6 | 1.08 | 0.000565 | 524000 | B1
2 | 0.2 | 7.1 | 0.000558 | 78500 | B2
3 | 1.3 | 1.27 | 0.000482 | 380000 | B3
4 | 0.1 | 17.9 | 0.000541 | 30300 | B4
5 | 2.7 | 0.62 | 0.000508 | 820000 | B5
6 | 1.3 | 1.29 | 0.000513 | 397000 | B6
7 | 0.8 | 2.2 | 0.000495 | 225000 | B7
8 | 0.9 | 1.89 | 0.000464 | 245000 | B8
9 | 0.8 | 2.05 | 0.00044 | 215000 | B9
10 | 0.1 | 11.7 | 0.000531 | 45300 | B10
11 | 1.8 | 0.97 | 0.000554 | 571000 | B11
12 | 7.7 | 0.222 | 0.00045 | 2.03e+06 | B12
13 | 0.3 | 5.98 | 0.00149 | 248000 | B13
14 | 0.9 | 1.8 | 0.000489 | 271000 | B14
15 | 0.8 | 2.04 | 0.000444 | 217000 | B15
16 | 0.6 | 2.68 | 0.000462 | 172000 | B16
17 | 1.8 | 0.965 | 0.000699 | 724000 | B17

Row | Fold change (relative to G6.31) [fold] | Kd [nM] | koff [s⁻¹] | kon [M⁻¹ s⁻¹] | Binder
18 | 0.9 | 1.93 | 0.000477 | 248000 | B18
19 | 3 | 0.562 | 0.000399 | 711000 | B19
20 | 1.7 | 0.991 | 0.000433 | 437000 | B20
21 | 2.2 | 0.788 | 0.000434 | 550000 | B21
22 | 0.9 | 1.96 | 0.00045 | 230000 | B22
23 | 1.1 | 1.56 | 0.000472 | 302000 | B23
24 | 1.1 | 1.56 | 0.000444 | 284000 | B24
25 | 0.5 | 3.6 | 0.000548 | 152000 | B25
26 | 1.7 | 0.974 | 0.000418 | 429000 | B26
27 | 2.4 | 0.715 | 0.000395 | 552000 | B27
28 | 3 | 0.566 | 0.000352 | 621000 | B28
29 | 4 | 0.42 | 0.00041 | 975000 | B29
30 | 1.1 | 1.53 | 0.000446 | 292000 | B30
31 | 1.1 | 1.48 | 0.000379 | 257000 | B31
32 | 1 | 1.72 | 0.000467 | 271000 | B32
33 | 0.8 | 2.11 | 0.000499 | 236000 | B33
